Ends that are not written are not given here.
How the values were obtained:
[1] = biological target: Phage λ Orf63, 6xHis-Flag affinity tagged (phage λ); assay: SEC-MALS
[2] = biological target: Phage λ Orf63, 6xHis-Flag affinity tagged (phage λ); assay: BLI

Molecule	stoichiometry N [1]	Kd [2] [µM]
Phage λ Orf63, 6xHis-Flag affinity tagged (natural protein)	2	–
GGLVPRGSGDTKELILAIARKVKEMIKNS (designed binder, also: fused to 6xHis-tagged ubiquitin) [6xHis-tagged ubiquitin fusion protein with the designed Orf63 binding peptide]	–	> 20

Source: paper doi:10.1101/2023.10.03.560691
